In test [1] the target is T1, Ad5 fiber-zipper protein with zipper peptide RR12EE345L at the carboxy terminus of the fiber (Ad5 (adenovirus serotype 5), UniProt P11818 1-581).
T1 construct: Transiently expressed in 293 cells, tested as cell lysate; also called Carboxy terminus of the fiber RR12EE345L; pVS-LL-RN
T1 sequence: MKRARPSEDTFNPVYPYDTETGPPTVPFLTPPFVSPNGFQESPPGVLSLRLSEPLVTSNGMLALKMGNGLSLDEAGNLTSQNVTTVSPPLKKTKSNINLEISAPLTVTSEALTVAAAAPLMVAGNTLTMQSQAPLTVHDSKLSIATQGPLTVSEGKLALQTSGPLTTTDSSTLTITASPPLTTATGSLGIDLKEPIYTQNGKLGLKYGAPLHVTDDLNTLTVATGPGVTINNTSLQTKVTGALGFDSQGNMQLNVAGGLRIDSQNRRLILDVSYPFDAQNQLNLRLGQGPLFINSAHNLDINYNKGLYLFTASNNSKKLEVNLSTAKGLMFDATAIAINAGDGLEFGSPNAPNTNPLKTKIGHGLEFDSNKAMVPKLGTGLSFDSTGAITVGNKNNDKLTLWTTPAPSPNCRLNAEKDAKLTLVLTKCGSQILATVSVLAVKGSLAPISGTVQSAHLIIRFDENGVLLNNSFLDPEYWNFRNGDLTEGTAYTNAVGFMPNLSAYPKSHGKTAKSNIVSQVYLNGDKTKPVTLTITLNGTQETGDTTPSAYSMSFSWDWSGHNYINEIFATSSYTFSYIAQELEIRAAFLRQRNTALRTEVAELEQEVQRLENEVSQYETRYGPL
Kind of test: co-precipitation of cell lysate with 6His-tagged sCAR on Ni-NTA matrix, detection with anti-fiber antibody.

Test [2] addresses T2, Ad5 fiber-zipper protein with zipper peptide EE12RR345L at the carboxy terminus of the fiber (Ad5 (adenovirus serotype 5), UniProt P11818 1-581).
T2 construct: Transiently expressed in 293 cells, tested as cell lysate; also called Carboxy terminus of the fiber EE12RR345L; pVS-LL-EN
The description is as above.

These results are taken from patent US20040171158A1 (VECTORLOGICS, published 2004).

B1: soluble form of the coxsackie virus and adenovirus receptor (CAR) with a carboxy terminal 6His tag (receptor)
chain: LSITTPEEMIEKAKGETAYLPCKFTLSPEDQGPLDIEWLISPADNQKVDQVIILYSGDKIYDDYYPDLKGRVHFTSNDLKSGDASINVTNLQLSDIGTYQCKVKKAPGVANKKIHLVVLVKPSGARCYVDGSEEIGSDFKIKCEPKEGSLPLQYEWQKLSDSQKMPTSWLAEMTSSVISVKNASSEYSGTYSCTVRNRVGSDQCLLRLNVVPPSNKAHHHHHH
notes: also called sCAR; native adenoviral receptor
For the molecule B1, the binding result in test [1] and in test [2] was “no binding” in each case.
